# Test results from FireProtDB (doi:10.1016/0003-9861(92)90047-z).
# Settings: Escherichia coli (strain K12); pH 7.2; Thermal; DSC; Sodium phosphate 1 mM; reversible: yes; whole UniProt chain shown
protein,measurement,value
"Tryptophan synthase alpha chain wild type, P0A877 (protein) MERYESLFAQLKERKEGAFVPFVTLGDPGIEQSLKIIDTLIEAGADALELGIPFSDPLADGPTIQNATLRAFAAGVTPAQCFEMLALIRQKHPTIPIGLLMYANLVFNKGIDEFYAQCEKVGVDSVLVADVPVEESAPFRQAALRHNVAPIFICPPNADDDLLRQIASYGRGYTYLLSRAGVTGAENRAALPLNHLVAKLKEYNAAPPLQGFGISAPDQVKAAIDAGAAGAISGSAIVKIIEQHINEPEKMLAALKVFVQPMKAATRS",Tm,59.5 °C
